Reference: publication PMC10003451 (2023)
Where no end group is shown, it is not given here. [ ]: non-standard residue; d: D form. pT = C[C@@H](OP(=O)(O)O)[C@H](N)C(=O)O

Molecular target: recombinant protein phosphatase-1 catalytic subunit alpha (PP1cα) (UniProt P62136 1-330)
Assay: ITC

Chain of recombinant protein phosphatase-1 catalytic subunit alpha (PP1cα) (P62136 whole entry): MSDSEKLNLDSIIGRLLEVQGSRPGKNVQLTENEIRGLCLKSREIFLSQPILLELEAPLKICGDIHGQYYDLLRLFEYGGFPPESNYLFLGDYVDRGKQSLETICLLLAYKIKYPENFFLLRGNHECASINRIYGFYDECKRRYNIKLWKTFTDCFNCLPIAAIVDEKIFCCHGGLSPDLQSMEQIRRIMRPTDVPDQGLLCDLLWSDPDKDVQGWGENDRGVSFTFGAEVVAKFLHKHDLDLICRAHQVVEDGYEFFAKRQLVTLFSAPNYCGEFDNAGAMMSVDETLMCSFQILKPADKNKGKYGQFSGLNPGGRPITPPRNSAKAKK

- Ka: 2.57e+06 M⁻¹
Binder: RQSRRS[pT]QGVTL
